B1: Proto-oncogene vav (Mus musculus), P27870 (parent)
chain: MELWRQCTHWLIQCRVLPPSHRVTWEGAQVCELAQALRDGVLLCQLLNNLLPQAINLREVNLRPQMSQFLCLKNIRTFLSTCCEKFGLKRSELFEAFDLFDVQDFGKVIYTLSALSWTPIAQNKGIMPFPTEDSALNDEDIYSGLSDQIDDTAEEDEDLYDCVENEEAEGDEIYEDLMRLESVPTPPKMTEYDKRCCCLREIQQTEEKYTDTLGSIQQHFMKPLQRFLKPQDMETIFVNIEELFSVHTHFLKELKDALAGPGATTLYQVFIKYKERFLVYGRYCSQVESASKHLDQVATAREDVQMKLEECSQRANNGRFTLRDLLMVPMQRVLKYHLLLQELVKHTQDATEKENLRLALDAMRDLAQCVNEVKRDNETLRQITNFQLSIENLDQSLANYGRPKIDGELKITSVERRSKTDRYAFLLDKALLICKRRGDSYDLKASVNLHSFQVRDDSSGERDNKKWSHMFLLIEDQGAQGYELFFKTRELKKKWMEQFEMAISNIYPENATANGHDFQMFSFEETTSCKACQMLLRGTFYQGYRCYRCRAPAHKECLGRVPPCGRHGQDFAGTMKKDKLHRRAQDKKRNELGLPKMEVFQEYYGIPPPPGAFGPFLRLNPGDIVELTKAEAEHNWWEGRNTATNEVGWFPCNRVHPYVHGPPQDLSVHLWYAGPMERAGAEGILTNRSDGTYLVRQRVKDTAEFAISIKYNVEVKHIKIMTSEGLYRITEKKAFRGLLELVEFYQQNSLKDCFKSLDTTLQFPYKEPERRAISKPPAGSTKYFGTAKARYDFCARDRSELSLKEGDIIKILNKKGQQGWWRGEIYGRIGWFPSNYVEEDYSEYC

Variants of: B1
Settings: with RAC1, P63000-1

Variant	effect of a mutation on the interaction
Y174F	increasing interaction
K208A	increasing interaction
